The record followed here is publication PMC2733745 (The Journal of Cell Biology, 2009).

As a reminder, the stoichiometry N is the number of molecules, sites or subunits per partner or assembly.

Test [1] addresses full-length WT αVβ3 stably expressed on K562 cells (human, UniProt P06756;P05106). Nature of the test: flow cytometry on cells. (In general: A flow cytometer gives signals particle by particle.)
Another test addresses 1TM-αVβ3 (human, UniProt P06756;P05106). Nature of the test: SEC. For orientation: Size exclusion chromatography separates by hydrodynamic size, large species first.
Test [2] deals with FN7–10 (fibronectin type III domains 7–10) (human, UniProt P02751-1 1173-1540). Nature of the test: SEC.

B1: Fab fragment of the anti–αV propeller mAb 17E6 (Fab, V domains shown)
VH: QVQLQQSGAELAEPGASVKMSCKASGYTFSSFWMHWVKQRPGQGLEWIGYINPRSGYTECNEIFRDKATMTADTSSSTAYMQLSGLTSEDSAVYYCASFLGRGAMDYWGQGTSVTVSS
VL: DIQMTQTTSSLSASLGDRVIISCRASQDISNYLSWYQQKPDGTVKLLIFYTSKLHSGVPSRFSGSGSGTDYSLTISNLDQEDIATYFCQQGNTFPYTFGGGTKVEMR
On to B1, for which the binding result (in test [1]; with 1TM-αVβ3) was “binds” in each case.

B2: 1TM-αVβ3 (complex)
chain 1: FNLDVDSPAEYSGPEGSYFGFAVDFFVPSASSRMFLLVGAPKANTTQPGIVEGGQVLKCDWSSTRRCQPIEFDATGNRDYAKDDPLEFKSHQWFGASVRSKQDKILACAPLYHWRTEMKQEREPVGTCFLQDGTKTVEYAPCRSQDIDADGQGFCQGGFSIDFTKADRVLLGGPGSFYWQGQLISDQVAEIVSKYDPNVYSIKYNNQLATRTAQAIFDDSYLGYSVAVGDFNGDGIDDFVSGVPRAARTLGMVYIYDGKNMSSLYNFTGEQMAAYFGFSVAATDINGDDYADVFIGAPLFMDRGSDGKLQEVGQVSVSLQRASGDFQTTKLNGFEVFARFGSAIAPLGDLDQDGFNDIAIAAPYGGEDKKGIVYIFNGRSTGLNAVPSQILEGQWAARSMPPSFGYSMKGATDIDKNGYPDLIVGAFGVDRAILYRARPVITVNAGLEVYPSILNQDNKTCSLPGTALKVSCFNVRFCLKADGKGVLPRKLNFQVELLLDKLKQKGAIRRALFLYSRSPSHSKNMTISRGGLMQCEELIAYLRDESEFRDKLTPITIFMEYRLDYRTAADTTGLQPILNQFTPANISRQAHILLDCGEDNVCKPKLEVSVDSDQKKIYIGDDNPLTLIVKAQNQGEGAYEAELIVSIPLQADFIGVVRNNEALARLSCAFKTENQTRQVVCDLGNPMKAGTQLLAGLRFSVHQQSEMDTSVKFDLQIQSSNLFDKVSPVVSHKVDLAVLAAVEIRGVSSPDHVFLPIPNWEHKENPETEEDVGPVVQHIYELRNNGPSSFSKAMLHLQWPYKYNNNTLLYILHYDIDGPMNCTSDMEINPLRIKISSLQTTEKNDTVAGQGERDHLITKRDLALSEGDIHTLGCGVAQCLKIVCQVGRLDRGKSAILYVKSLLWTETFMNKENQNHSYSLKSSASFNVIEFPYKNLPIEDITNSTLVTTNVTWGIQPAPMPVPVWVI
chain 2: GPNICTTRGVSSCQQCLAVSPMCAWCSDEALPLGSPRCDLKENLLKDNCAPESIEFPVSEARVLEDRPLSDKGSGDSSQVTQVSPQRIALRLRPDDSKNFSIQVRQVEDYPVDIYYLMDLSYSMKDDLWSIQNLGTKLATQMRKLTSNLRIGFGAFVDKPVSPYMYISPPEALENPCYDMKTTCLPMFGYKHVLTLTDQVTRFNEEVKKQSVSRNRDAPEGGFDAIMQATVCDEKIGWRNDASHLLVFTTDAKTHIALDGRLAGIVQPNDGQCHVGSDNHYSASTTMDYPSLGLMTEKLSQKNINLIFAVTENVVNLYQNYSELIPGTTVGVLSMDSSNVLQLIVDAYGKIRSKVELEVRDLPEELSLSFNATCLNNEVIPGLKSCMGLKIGDTVSFSIEAKVRGCPQEKEKSFTIKPVGFKDSLIVQVTFDCDCACQAQAEPNSHRCNNGNGTFECGVCRCGPGWLGSQCECSEEDYRPSQQDECSPREGQPVCSQRGECLCGQCVCHSSDFGKITGKYCECDDFSCVRYKGEMCSGHGQCSCGDCLCDSDWTGYYCNCTTRTDTCMSSNGLLCSGRGKCECGSCVCIQPGSYGDTCEKCPTCPDACTFKKECVECKKFDRGALHDENTCNRYCRDEIESVKELKDTGKDAVNCTYKNEDDCVVRFQYYEDSSGKSILYVVEEPECPKGPDILVV
Take B2: the “stoichiometry N” value in test [2] was roughly 1 integrin/FN molar ratio.
